Reference: the NTF2 design screens of Basanta et al. (2020)

Test: protease stability score; higher = more stable; yeast display proteolysis, trypsin and chymotrypsin;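 note: relative to predicted unfolded state with 0 unfolded-like and 1 meaning tenfold more protease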

Sequence | protease stability score
TESEKMALIAIEIIFHDLLTGNEESLIKLADPDVQLHYGDKTFHGREEFHKLYSEIIKRYDHIEVLIRDIRVQGDKMHVKEELNLVINGKTVHLESNRTSLKYNGRWHLKSVHLH | 1.26
TESEKSAHEFLELFEKSIVTGDEDNLDKMADPNVQTIINGREFHGREEMVKAFREIWNIMGVKHIEIRLKQIDFQGEKISVDSRLHIDVNGKRIDHSMTIIFRKINGRWVLESINRD | 1.34
TESKQEEHLALEVIEHAYRTGDEHELHELLDPHTRIFIGDKTHHGREFYLRVLKRERDELGVDKIEIIIRRVEIQGDKMIMDGELRVNGKTVRVHLILRKYDGRWLIKHITHE | 1.47
TETERHIEEHLRQMVHQLRTGDFERFEDLADPNMRIDVDGKEFIGREAVDRFWRRVDVIHDLDFKDMEIQGNKVVLNVRIIGNINGVHDHTEQHIVVFKINGRWYWHSIEVH | 1.16
TEVEKKAREINKELSSALLTGDEHIMRRLADPHVRIFFNGQHLVGMEEMMKVLLHLRIKWKDIKIEDVKIQGDFMHIDTIEHGILEVGDKRIEFHREVEIYITKINGRWMIEELTYR | 1.34
TEYEEHMKKMNEEILHSWITGDEDTLQHLADPNVRVEINGQETHGREQLYNTFHKAGFKHWEFDSIRFQGDKSDIRGQFEVDGQLREMEVEMRIVNGRLKIVRLDIR | 0.977
TEYEHLMEYIVRRFLEVLLTGDERELDRLADPHVIHHMKQGDKSWSLHGMELLSEVSRHWRDEIRIKRVEIHDLKNIGNWSDMYSTVHLRYNGREEVVEVRLHIDVYNGRVREVEIRIH | 1.12
THDEEVIEIMMDHLREQIHTGDFTSLLEQLDPHARSDVDGREFHGREIVAHVWFHLRVKHVRIDHVDIVNGKIRVDSWIQGRINGRETEYEVILRAHKVDGRWRVHSYEIR | 1.72
THEDEIFKEFERILREVDETGDEHDIKQYLDPNTKFHINGRDLIGMKVVTEFWRELLQKYKNLTINRRIRHVEVYNGRVHIHGHLSLHYGDKDIRVDVHIQAIKIDGRWHLQQEHYL | 1.15
THEEEIFRRIAELIIDALTTGDEQLLRDLADPHVRQILIIDGREITVHGREEVFELLKEHIDELRIHRVNIEHMDVVGNKVTLDGRMDGYYGDKRTRLEFRIHIDIVNGKLKELTITMR | 2.16
THEEELSREATRFMLHVLMTGDPTLTEEQADPRTRVVVGDKELHGMEHLSKWYEDHWRQYPNVRIEFKRTEVQGDKMFLDGRLKVNGRETHVFILAFKINGQWVLEEIRFK | 1.59
THEEEQARRALKHLIELEKTGDEEKWSHLADPNVRMEINGRQVHGRETIRKIYHEWRRKLGVNHIHHIEIKHIDIQGEKLRVEMHVNSQYGDKTLLIETEIELDKIDGKWIITMHYER | 1.15
THEEHFDERVARHLHENFLTGNEDIFEHLADPHTRIIIVQGDKMIHFHGWEWFAMKMLEDLHRIKGIRITLRHINIQGDKWILEMKVDIGDKELETEIIIHVINGKIESVRIIIR | 1.35
THEERLYREAMELEREVWETGDEHLIRDMVDPNVRFEINGVNTHGREEMARFVHEFGVDHIHIDHLQRINGRLEVRGKFQVGDKWVRTRFISTKINGRWFVESVHVR | 0.626
THEQKLSHEITHIFWEILKTGDEHEMRRLADPNVQLEINGVERHGMHVLEHWLVHLGIDHLHVTDHRVQGEYSYWDTTLRVGDKERTIHLEVLAFNGRVKAFRLHVR | 1.22
THEWREAREMIEVFLERIETGDEESLERLLDPHVRVHINGKDFHGRDEAIRKLIEMRHHSIHLKHINVQGDKVHNFGEWIVDFDGKKHTHKMILYISKVNGRWLIDSIHVE | 0.98
THLHDQVHKAVEDVERDLMTGNEERLYKLLDPNVRIEYNGQDLHGREIAIHFLIRISNHWRFEDLHIESMNVQGNKATIHSRYVRHIGDKREETHVHLYMVKINGQWFIHSMSFS | 2.25
TKDDEDRKHFEKLLRHSLETGNWHDMQRNADPNVRLNVNGVEIHGMDTAYELWVEELNRADHIEIHMEHSTRVGDKLHLDVNVIMKQGDKHIERRVRLVVLKINGRWFIHSVHVH | 1.1
TKEEDLMELALRIIERVNETGDEQELHDRLDPHTQIEIGDKNEHGWEHIVHVMRHIRIEQIRFRDRRVQGDKVHVFVESEIRVGEKQLHVKVDIYVWKFDGRWIMTRMRVE | 1.33
TKEEEESRHWSELMFHLEETGDEEILKDLADPHVKIHVNGVHLHGMEKLEEWRRRLGITKFDSHLHDFRVQGEKMHNIVHLHINGQKIDAHIIIIIVDGKITRIIIRIT | 0.75
TKEEELAHRALHEWINDINTGNEEEFKELVDPNARMLVDGRHHHGREHVINVFIHLIRKVKNLTVDLDEIEIQGDKVTVIGILRVDGREIHITIHSRKINGRWHFEDIVWE | 1.6
TQEKREADHSNKLEEHSHQTGDERLLTELADPHVKIFVDGQELHGREEFLRWVEEAGVKHFHVDHVRYQGDKLFVHGHFNINGREREVRLIYRKVNGKWYLHQMDIN | 1.23
TSHEHELRRVAEEIIHAYLTGDWWRWERLFDPHVRVETQVGDKRIERHGREDLIRFLNEMRVHRIEIKTRELYDGRVHIHSRMDYEVDGQRDDVDLHLHFHIVDGKVEEVVITIK | 1.47
TTEHAATLFLTSMITGDWEWISRLFDPHVRLVFNGVTNVGRELAIHKLVETVLKLGVKHTHIDEMRLYGDKVEVHVTLRVGDKTTNIDIEVDWVDGQVKEVHIDTRTEDTSKILKHVYK | 0.109
VEDLQLAEHVTRLLLHLVHTGDFDVMKELLDPNVRIHVDGQDYHGRDVWKHILDRFDYISVHHSEVKENDVQGNKVNIRVHTDVIFEYGDKRLRQRYDVVVIAQKINGRWIIELFSVR | 1.22
VEDLREYIRIAEELVKSWITGDWDRLRKLVDPNVRLDVDGVENIGRDHVHRALEEHEKHIRLKDHRIEHIDAVDGKSTMHTRSHFHINGVEHEVNVHMEFVIVNGRVTEMRISIR | 1.02
VETEERLHDIVHSIIRLDETGDEQDFDRLVDPNAKFDIDGKELHGRDNFRHMWARYRRELGVDHIQFKHVFIQGDKIHQERRVTIGDKTYNMHVDLVVIDGRIQHVRYRIR | 1.56
